For the test, the target named is T1, Recombinant Human FGFR1 alpha (IIIc) Fc Chimera Protein (Homo sapiens, UniProt P11362).
T1 construct: purchased R&D systems 658-FR-050
Nature of the test: ELISA binding affinity of enzymatically synthesized peptide to FGFR. The following applies: ELISA luminescence signal at 10 nmol/L peptide, SEQ ID NO: 239 standardized to 1; enzyme synthesis product. In a few lines:
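Cell-free PUREfrex-translated cyclic peptides (Myc/HiBiT-tagged, quantified by HiBiT luminescence) bound 3 h at room temperature to immobilized FGFR1α(IIIc)-Fc, detected with anti-Myc and chemiluminescence. FGFR-specific signal at 10 nmol/L normalized to a reference cyclic peptide and graded A–D.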
On the technique in general: In an ELISA, binding on a coated surface is turned into a signal by an enzyme label.

Positions of bridges follow the written chain, without caps; N, C: chain ends. No end group written: not given here. COCH2 = acetyl group that carries the bridge

T1 sequence (P11362 with tags, fused parts or gaps limits assumed): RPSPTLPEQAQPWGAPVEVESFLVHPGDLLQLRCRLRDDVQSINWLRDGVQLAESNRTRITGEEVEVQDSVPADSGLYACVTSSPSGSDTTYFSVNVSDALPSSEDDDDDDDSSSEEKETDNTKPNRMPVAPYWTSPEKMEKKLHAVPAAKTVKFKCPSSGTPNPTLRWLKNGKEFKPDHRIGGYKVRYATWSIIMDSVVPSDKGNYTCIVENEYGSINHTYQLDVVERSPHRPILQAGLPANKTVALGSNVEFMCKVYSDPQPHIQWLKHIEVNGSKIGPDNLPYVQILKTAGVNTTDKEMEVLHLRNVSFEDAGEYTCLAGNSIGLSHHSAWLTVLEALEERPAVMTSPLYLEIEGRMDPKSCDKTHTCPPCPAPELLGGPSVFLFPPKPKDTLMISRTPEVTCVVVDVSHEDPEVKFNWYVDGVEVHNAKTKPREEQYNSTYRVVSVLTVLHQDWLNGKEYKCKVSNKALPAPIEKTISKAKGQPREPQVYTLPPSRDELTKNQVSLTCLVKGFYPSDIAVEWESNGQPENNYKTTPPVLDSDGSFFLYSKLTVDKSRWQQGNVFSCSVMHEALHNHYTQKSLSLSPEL

Regarding “168 (ICVYTFDAHAHSYHAALTK(COCH2)I; thioether 2-19 (inferred)) [compound 168]”, the “Evaluation result of binding affinity to FGFR” value (shortened to “Evaluation result”) was “A (0.7 or more)”.

As for “169 (ICVYTFDAHAHSWHAALTK(COCH2)I; thioether 2-19 (inferred)) [compound 169]”, the “Evaluation result” value is “C (0.1 or more and less than 0.5)”.

In the case of “170 (ICVYTFDAHAHSQHAALTK(COCH2)I; thioether 2-19 (inferred)) [compound 170]”, the “Evaluation result” value is “C (0.1 or more and less than 0.5)”.

For the substance “171 (ICVYTFDAHAHSSHAALTK(COCH2)I; thioether 2-19 (inferred)) [compound 171]”, the “Evaluation result” value is “B (0.5 or more and less than 0.7)”.

As to “172 (ICVYTFDAHAHSTHAALTK(COCH2)I; thioether 2-19 (inferred)) [compound 172]”, the “Evaluation result” value was “B (0.5 or more and less than 0.7)”.

As to “173 (ICVYTFDAHAHSEHAALTK(COCH2)I; thioether 2-19 (inferred)) [compound 173]”, the “Evaluation result” value is “C (0.1 or more and less than 0.5)”.

Regarding “174 (ICVYTFDAHAHSRHAALTK(COCH2)I; thioether 2-19 (inferred)) [compound 174]”, the “Evaluation result” value was “C (0.1 or more and less than 0.5)”.

Regarding “175 (ICVYTFDAHAHSHHAALTK(COCH2)I; thioether 2-19 (inferred)) [compound 175]”, the “Evaluation result” value was “B (0.5 or more and less than 0.7)”.

Turning to “176 (ICVYTFDAHAHSLAAALTK(COCH2)I; thioether 2-19 (inferred)) [compound 176]”, the “Evaluation result” value is recorded as “A (0.7 or more)”.

As for “177 (ICVYTFDAHAHSLGAALTK(COCH2)I; thioether 2-19 (inferred)) [compound 177]”, the “Evaluation result” value is on record as “A (0.7 or more)”.

For the substance “178 (ICVYTFDAHAHSLPAALTK(COCH2)I; thioether 2-19 (inferred)) [compound 178]”, the “Evaluation result” value is given as “A (0.7 or more)”.

Turning to “179 (ICVYTFDAHAHSLLAALTK(COCH2)I; thioether 2-19 (inferred)) [compound 179]”, the “Evaluation result” value is “B (0.5 or more and less than 0.7)”.

On to “180 (ICVYTFDAHAHSLIAALTK(COCH2)I; thioether 2-19 (inferred)) [compound 180]”, for which the “Evaluation result” value is “B (0.5 or more and less than 0.7)”.

Consider “181 (ICVYTFDAHAHSLVAALTK(COCH2)I; thioether 2-19 (inferred)) [compound 181]”, for which the “Evaluation result” value is “B (0.5 or more and less than 0.7)”.

On to “182 (ICVYTFDAHAHSLFAALTK(COCH2)I; thioether 2-19 (inferred)) [compound 182]”, for which the “Evaluation result” value is “C (0.1 or more and less than 0.5)”.

Regarding “183 (ICVYTFDAHAHSLYAALTK(COCH2)I; thioether 2-19 (inferred)) [compound 183]”, the “Evaluation result” value is “B (0.5 or more and less than 0.7)”.

Consider “184 (ICVYTFDAHAHSLWAALTK(COCH2)I; thioether 2-19 (inferred)) [compound 184]”, for which the “Evaluation result” value is “C (0.1 or more and less than 0.5)”.

For “185 (ICVYTFDAHAHSLNAALTK(COCH2)I; thioether 2-19 (inferred)) [compound 185]”, the “Evaluation result” value is “A (0.7 or more)”.

In the case of “186 (ICVYTFDAHAHSLQAALTK(COCH2)I; thioether 2-19 (inferred)) [compound 186]”, the “Evaluation result” value is recorded as “A (0.7 or more)”.

With “187 (ICVYTFDAHAHSLSAALTK(COCH2)I; thioether 2-19 (inferred)) [compound 187]”, the “Evaluation result” value is recorded as “A (0.7 or more)”.

Regarding “188 (ICVYTFDAHAHSLTAALTK(COCH2)I; thioether 2-19 (inferred)) [compound 188]”, the “Evaluation result” value is given as “A (0.7 or more)”.

As to “189 (ICVYTFDAHAHSLDAALTK(COCH2)I; thioether 2-19 (inferred)) [compound 189]”, the “Evaluation result” value is “A (0.7 or more)”.

For “190 (ICVYTFDAHAHSLEAALTK(COCH2)I; thioether 2-19 (inferred)) [compound 190]”, the “Evaluation result” value was “A (0.7 or more)”.

As for “191 (ICVYTFDAHAHSLRAALTK(COCH2)I; thioether 2-19 (inferred)) [compound 191]”, the “Evaluation result” value was “B (0.5 or more and less than 0.7)”.

For “192 (ICVYTFDAHAHSLHGALTK(COCH2)I; thioether 2-19 (inferred)) [compound 192]”, the “Evaluation result” value was “A (0.7 or more)”.

On to “193 (ICVYTFDAHAHSLHLALTK(COCH2)I; thioether 2-19 (inferred)) [compound 193]”, for which the “Evaluation result” value is “C (0.1 or more and less than 0.5)”.

In the case of “194 (ICVYTFDAHAHSLHIALTK(COCH2)I; thioether 2-19 (inferred)) [compound 194]”, the “Evaluation result” value is “C (0.1 or more and less than 0.5)”.

“195 (ICVYTFDAHAHSLHVALTK(COCH2)I; thioether 2-19 (inferred)) [compound 195]”: the “Evaluation result” value is “C (0.1 or more and less than 0.5)”.

For “196 (ICVYTFDAHAHSLHFALTK(COCH2)I; thioether 2-19 (inferred)) [compound 196]”, the “Evaluation result” value is “C (0.1 or more and less than 0.5)”.

“197 (ICVYTFDAHAHSLHYALTK(COCH2)I; thioether 2-19 (inferred)) [compound 197]”: the “Evaluation result” value is “C (0.1 or more and less than 0.5)”.

On to “198 (ICVYTFDAHAHSLHWALTK(COCH2)I; thioether 2-19 (inferred)) [compound 198]”, for which the “Evaluation result” value is “C (0.1 or more and less than 0.5)”.

As for “199 (ICVYTFDAHAHSLHNALTK(COCH2)I; thioether 2-19 (inferred)) [compound 199]”, the “Evaluation result” value is on record as “A (0.7 or more)”.

As for “200 (ICVYTFDAHAHSLHQALTK(COCH2)I; thioether 2-19 (inferred)) [compound 200]”, the “Evaluation result” value was “A (0.7 or more)”.

Take “201 (ICVYTFDAHAHSLHSALTK(COCH2)I; thioether 2-19 (inferred)) [compound 201]”: the “Evaluation result” value is “A (0.7 or more)”.

Regarding “202 (ICVYTFDAHAHSLHTALTK(COCH2)I; thioether 2-19 (inferred)) [compound 202]”, the “Evaluation result” value is recorded as “A (0.7 or more)”.

Consider “203 (ICVYTFDAHAHSLHDALTK(COCH2)I; thioether 2-19 (inferred)) [compound 203]”, for which the “Evaluation result” value is “A (0.7 or more)”.

With “204 (ICVYTFDAHAHSLHEALTK(COCH2)I; thioether 2-19 (inferred)) [compound 204]”, the “Evaluation result” value is reported as “A (0.7 or more)”.

Turning to “205 (ICVYTFDAHAHSLHRALTK(COCH2)I; thioether 2-19 (inferred)) [compound 205]”, the “Evaluation result” value is on record as “A (0.7 or more)”.

In the case of “206 (ICVYTFDAHAHSLHHALTK(COCH2)I; thioether 2-19 (inferred)) [compound 206]”, the “Evaluation result” value is “A (0.7 or more)”.

For the substance “207 (ICVYTFDAHAHSLHAILTK(COCH2)I; thioether 2-19 (inferred)) [compound 207]”, the “Evaluation result” value is “C (0.1 or more and less than 0.5)”.

Turning to “208 (ICVYTFDAHAHSLHAVLTK(COCH2)I; thioether 2-19 (inferred)) [compound 208]”, the “Evaluation result” value is “C (0.1 or more and less than 0.5)”.

Consider “209 (ICVYTFDAHAHSLHASLTK(COCH2)I; thioether 2-19 (inferred)) [compound 209]”, for which the “Evaluation result” value is “C (0.1 or more and less than 0.5)”.

As to “210 (ICVYTFDAHAHSLHAAITK(COCH2)I; thioether 2-19 (inferred)) [compound 210]”, the “Evaluation result” value was “C (0.1 or more and less than 0.5)”.

With “211 (ICVYTFDAHAHSLHAAVTK(COCH2)I; thioether 2-19 (inferred)) [compound 211]”, the “Evaluation result” value was “C (0.1 or more and less than 0.5)”.

For “212 (ICVYTFDAHAHSLHAAFTK(COCH2)I; thioether 2-19 (inferred)) [compound 212]”, the “Evaluation result” value is “C (0.1 or more and less than 0.5)”.

As to “213 (ICVYTFDAHAHSLHAATTK(COCH2)I; thioether 2-19 (inferred)) [compound 213]”, the “Evaluation result” value is “C (0.1 or more and less than 0.5)”.

As to “214 (ICVYTFDAHAHSLHAALAK(COCH2)I; thioether 2-19 (inferred)) [compound 214]”, the “Evaluation result” value is “C (0.1 or more and less than 0.5)”.

Turning to “215 (ICVYTFDAHAHSLHAALGK(COCH2)I; thioether 2-19 (inferred)) [compound 215]”, the “Evaluation result” value is “C (0.1 or more and less than 0.5)”.

On to “216 (ICVYTFDAHAHSLHAALPK(COCH2)I; thioether 2-19 (inferred)) [compound 216]”, for which the “Evaluation result” value was “C (0.1 or more and less than 0.5)”.

As for “217 (ICVYTFDAHAHSLHAALVK(COCH2)I; thioether 2-19 (inferred)) [compound 217]”, the “Evaluation result” value was “C (0.1 or more and less than 0.5)”.

On to “218 (ICVYTFDAHAHSLHAALFK(COCH2)I; thioether 2-19 (inferred)) [compound 218]”, for which the “Evaluation result” value was “C (0.1 or more and less than 0.5)”.

“219 (ICVYTFDAHAHSLHAALNK(COCH2)I; thioether 2-19 (inferred)) [compound 219]”: the “Evaluation result” value was “A (0.7 or more)”.

Values taken from US20260008817A1, “CYCLIC PEPTIDE OR SALT THEREOF, AND USES THEREOF” (FUJIFILM Corporation, priority 2023, published 2026).
